Reference: patent US20260218270A1

Legend:
[1] = target: fusion protein of SEQ ID NO: 16 (Nanoluc luciferase at the C-terminus, VWF A2 domain aa1574-1668, Flag-tag, C-terminal His-tag); test: cell-based or functional assay
[2] = target: T1, fusion protein of SEQ ID NO: 15 (Nanoluc luciferase at the N-terminus, VWF A2 domain aa1574-1668, Flag-tag, C-terminal His-tag)
T1 chain: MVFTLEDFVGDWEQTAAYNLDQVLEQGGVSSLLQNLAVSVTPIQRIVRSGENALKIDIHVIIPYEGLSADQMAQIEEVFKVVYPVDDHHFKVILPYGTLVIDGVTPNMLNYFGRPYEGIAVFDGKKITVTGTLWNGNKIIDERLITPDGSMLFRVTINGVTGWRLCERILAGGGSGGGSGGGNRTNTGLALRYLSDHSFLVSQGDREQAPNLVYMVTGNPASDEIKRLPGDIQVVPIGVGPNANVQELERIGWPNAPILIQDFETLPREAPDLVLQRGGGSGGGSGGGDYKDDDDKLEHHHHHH

[3] = target: T2, N-NLuc-VWFA2-C fusion protein (SEQ ID NO: 17)
T2 chain: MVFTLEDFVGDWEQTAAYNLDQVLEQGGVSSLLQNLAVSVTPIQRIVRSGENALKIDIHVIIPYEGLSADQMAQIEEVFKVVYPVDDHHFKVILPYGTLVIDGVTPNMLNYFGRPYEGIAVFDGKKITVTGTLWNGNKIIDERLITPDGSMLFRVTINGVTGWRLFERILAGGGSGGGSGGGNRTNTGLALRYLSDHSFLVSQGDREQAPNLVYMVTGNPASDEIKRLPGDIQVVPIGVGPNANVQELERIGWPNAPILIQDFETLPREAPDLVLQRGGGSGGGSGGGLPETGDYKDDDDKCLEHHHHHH

[4] = target: T3, fusion protein of SEQ ID NO: 16 (Nanoluc luciferase at the C-terminus, VWF A2 domain aa1574-1668, Flag-tag, C-terminal His-tag)
T3 chain: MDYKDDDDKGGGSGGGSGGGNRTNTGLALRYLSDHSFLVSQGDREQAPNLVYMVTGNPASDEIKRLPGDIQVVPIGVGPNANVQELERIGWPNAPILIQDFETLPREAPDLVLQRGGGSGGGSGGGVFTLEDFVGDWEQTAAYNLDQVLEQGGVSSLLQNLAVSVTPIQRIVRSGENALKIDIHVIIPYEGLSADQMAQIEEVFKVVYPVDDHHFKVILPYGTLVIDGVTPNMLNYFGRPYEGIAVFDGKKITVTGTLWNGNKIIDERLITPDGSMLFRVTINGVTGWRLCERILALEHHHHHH

B1: ADAMTS13 (protein)
chain: AAGGILHLELLVAVGPDVFQAHQEDTERYVLTNLNIGAELLRDPSLGAQFRVHLVKMVILTEPEGAPNITANLTSSLLSVCGWSQTINPEDDTDPGHADLVLYITRFDLELPDGNRQVRGVTQLGGACSPTWSCLITEDTGFDLGVTIAHEIGHSFGLEHDGAPGSGCGPSGHVMASDGAAPRAGLAWSPCSRRQLLSLLSAGRARCVWDPPRPQPGSAGHPPDAQPGLYYSANEQCRVAFGPKAVACTFAREHLDMCQALSCHTDPLDQSSCSRLLVPLLDGTECGVEKWCSKGRCRSLVELTPIAAVHGRWSSWGPRSPCSRSCGGGVVTRRRQCNNPRPAFGGRACVGADLQAEMCNTQACEKTQLEFMSQQCARTDGQPLRSSPGGASFYHWGAAVPHSQGDALCRHMCRAIGESFIMKRGDSFLDGTRCMPSGPREDGTLSLCVSGSCRTFGCDGRMDSQQVWDRCQVCGGDNSTCSPRKGSFTAGRAREYVTFLTVTPNLTSVYIANHRPLFTHLAVRIGGRYVVAGKMSISPNTTYPSLLEDGRVEYRVALTEDRLPRLEEIRIWGPLQEDADIQVYRRYGEEYGNLTRPDITFTYFQPKPRQAWVWAAVRGPCSVSCGAGLRWVNYSCLDQARKELVETVQCQGSQQPPAWPEACVLEPCPPYWAVGDFGPCSASCGGGLRERPVRCVEAQGSLLKTLPPARCRAGAQQPAVALETCNPQPCPARWEVSEPSSCTSAGGAGLALENETCVPGADGLEAPVTEGPGSVDEKLPAPEPCVGMSCPPGWGHLDATSAGEKAPSPWGSIRTGAQAAHVWTPAAGSCSVSCGRGLMELRFLCMDSALRVPVQEELCGLASKPGSRREVCQAVPCPARWQYKLAACSVSCGRGVVRRILYCARAHGEDDGEEILLDTQCQGLPRPEPQEACSLEPCPPRWKVMSLGPCSASCGLGTARRSVACVQLDQGQDVEVDEAACAALVRPEASVPCLIADCTYRWHVGTWMECSVSCGDGIQRRRDTCLGPQAQAPVPADFCQHLPKPVTVRGCWAGPCVGQGTPSLVPHEEAAAPGRTTATPAGASLEWSQARGLLFSPAPQPRRLLPGPQENSVQSSACGRQHLEPTGTIDMRGPGQADCAVAIGRPLGEVVTLRVLESSLNCSAGDMLLLWGRLTWRKMCRKLLDMTFSSKTNTLVVRQRCGRPGGGVLLRYGSQLAPETFYRECDMQLFGPWGEIVSPSLSPATSNAGGCRLFINVAPHARIAIHALATNMGAGTEGANASYILIRDTHSLRTTAFHGQQVLYWESESSQAEMEFSEGFLKAQASLRGQYWTLQSWVPEMQDPQSWKGKEGT
- luminescence (RLU) left on the Ni-NTA binding plate, A13 from lithium-heparin plasma, FIG. 8C [1]: 400000 RLU
- luminescence (RLU) of fusion protein left on anti-VWF-A2 coated plate after incubation with 0-20% NPP [2]: shows a decreasing signal when the concentration NPP increases, suggesting that ADAMTS13 cleaves the fusion protein
- SDS-PAGE (4-15% gradient, Coomassie Blue), FIG. 10 [3]: shows the expected fragments of the fusion-protein (SEQ ID NO: 17) after cleavage by adding ADAMTS13
- amount of fusion protein cleaved off and transferred to the new plate [4]: ~120 ng VWFA2-Nanoluc
- luminescence (RLU) against NPP concentration, FIG. 1 [4]: This fusion protein is also cleaved by ADAMTS13 but here is not as much influence on light emission
- luminescence (RLU) of fusion protein left on anti-VWF-A2 coated plate after incubation with 0-20% NPP [4]: did not demonstrate an effect of an increasing ADAMTS13 concentration
- luminescence (RLU) transferred from anti-FLAG plate after A13 at 0-1 IU/mL [4]: a signal increase from ~1.5 towards ~1.7 M RLU for C-Flag
- share of the initially offered quantity that was cleaved off and transferred [4]: ~12% of the initially offered quantity to the wells
